These results are taken from article PMC9811540.

The assay addresses UltraID-δ opioid receptor fusion protein (UniProt P41143). Put plainly: proximity labelling; test selection on live Expi293F cells expressing UltraID-DOR; 0.1 nM DTK-DNA, 0.1 nM Met-Enk-RF-DNA, 100 nM non-ligand DNA, biotin 2 μM, ATP 50 μM, 30 minutes; lysis with 1% SDS, streptavidin beads, qPCR. In general terms: Real-time PCR tracks product formation cycle by cycle.

For the substance Dmt-Tic-Lys (DTK), DNA-linked (peptide), the fold enrichment over non-ligand DNA is 280 fold. For the substance Met-Enk-RF, DNA-linked (peptide), the fold enrichment over non-ligand DNA came out at 40 fold.
